Changes are numbered by the printed parent chain.
T1: human 5T4 (trophoblast glycoprotein), endogenous on the cell surface (human, UniProt Q13641 32-420)
T1 construct: also called TPBG; 5T4 oncofetal antigen
T1 sequence: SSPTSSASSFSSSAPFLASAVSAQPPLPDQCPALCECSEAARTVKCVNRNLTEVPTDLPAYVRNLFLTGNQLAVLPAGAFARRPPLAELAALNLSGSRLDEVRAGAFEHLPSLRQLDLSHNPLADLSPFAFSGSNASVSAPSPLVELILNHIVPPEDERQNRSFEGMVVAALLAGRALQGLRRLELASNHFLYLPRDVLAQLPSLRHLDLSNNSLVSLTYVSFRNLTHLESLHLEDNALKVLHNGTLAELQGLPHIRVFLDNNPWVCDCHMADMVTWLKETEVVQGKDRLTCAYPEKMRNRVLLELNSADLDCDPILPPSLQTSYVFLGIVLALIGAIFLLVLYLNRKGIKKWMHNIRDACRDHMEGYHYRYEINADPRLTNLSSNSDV

B1: hz14B5v2 sdAb-Fc (Fc fusion)
chain: EVQLVESGGGEVQPGGSLRLSCAASERPFGTYAMGWFRQAPGKERDLVAAVSRNGGASQYAESVKGRFTISRDNAKNTLYLQMSSLRAEDTAVYYCAARSAAYSRSSEVYTGKDEYYYWGQGTLVTVKP
notes: Humanized variant of 14B5, linked to a human Fc; not shown: human Fc
B2: hz14B5v19 sdAb-Fc (Fc fusion)
chain: B1 chain with E26G, G55A, Q59Y, L79V
notes: as for B1
B3: hz14B5v16 sdAb-Fc (Fc fusion)
chain: B1 chain with G55A, A61G, S63F, L79M
notes: as for B1
B4: hz14B5v20 sdAb-Fc (Fc fusion)
chain: B1 chain with E26G, G30S, T31S, G55A, Q59Y, L79V
notes: as for B1
B5: hz14B5v18 sdAb-Fc (Fc fusion)
chain: B1 chain with G30S, T31S, G55A, Q59Y, L79V
notes: as for B1
B6: hz14B5v15 sdAb-Fc (Fc fusion)
chain: B1 chain with G55A, Q59Y, L79M
notes: as for B1
B7: hz14B5v11 sdAb-Fc (Fc fusion)
chain: B1 chain with P14A, G16D, R19T, A24V, K43R, G55A, L79M
notes: Humanized variant of 14B5, linked to a human Fc; also called hz14B511; not shown: human Fc
B8: hz14B5v14 sdAb-Fc (Fc fusion)
chain: B1 chain with D46E, L47F, G55A, L79M
notes: as for B1
B9: hz14B5v12 sdAb-Fc (Fc fusion)
chain: B1 chain with G55A, A61G, T69S, A75I, L79M, R87K, A88P
notes: as for B1
B10: hz14B5v13 sdAb-Fc (Fc fusion)
chain: B1 chain with D46E, L47T, G55A, L79M
notes: as for B1
B11: 7E1 sdAb-Fc (Fc fusion, not shown: a dimerising Fc or GST)
chain: QVQLVQSGGGLVQAGASLRLSCVASGRTRSLRTMAWFRQAPGKERIFVAAISWRSDSTYYADSVKGRFTISRDNAKNTAYLQMNTLKPEDTAVYYCAAGGGWLATTPDEYTYWGQGTLVTVKP
notes: Camelid derived sdAb tested as sdAb-Fc
B12: 16G10 sdAb-Fc (Fc fusion, not shown: a dimerising Fc or GST)
chain: QVQLLQSGGGLVQAGGSLILSCAVSGRPFSSSAMGWFRQAPGKERETVAAVSRNGGSSYYADFVKGRFTISRDNDKNTVYLQMNSLKPEDTAVYYCAARSAAYSRSSETYTEKHDYTYWGQGTQVTVKP
notes: Camelid derived sdAb tested as sdAb-Fc; also called L16G10
B13: 4D3 sdAb-Fc (Fc fusion, not shown: a dimerising Fc or GST)
chain: QVQLQESGGGLVQAGGSLRLSCAASRRPFSSKTMAWFRQTPGKEREFVAAVRWIGGATRYTDSVKGRFSISKDNAINTVYLQTNSLKSEDTAVYYCAAGQTWGTKFTDYSDWGQGTLVTVKP
notes: as for B11
B14: hz16G10v9 sdAb-Fc (Fc fusion)
chain: EVQLVESGGGEVQPGGSLRLSCAASGRPFSSSAMGWFRQAPGKERETVAAVSRNGGSSYYAESVKGRFTISRDNDKNTVYLQMSSLRAEDTAVYYCAARSAAYSRSSETYTEKHDYTYWGQGTLVTVKP
notes: Humanized variant of 16G10, linked to a human Fc; not shown: human Fc
B15: hz16G10v10 sdAb-Fc (Fc fusion)
chain: B14 chain with G55A, E62D, S63F, D75A
notes: as for B14
B16: hz16G10v7 sdAb-Fc (Fc fusion)
chain: B14 chain with G55T, D75A
notes: as for B14
B17: 14F4 sdAb-Fc (Fc fusion, not shown: a dimerising Fc or GST)
chain: QVQLQESGGGLMQAGDSLRLSCVVSGVTWNSYTMAWFRQAPGKEREFVAAIRWTVDTTYYADFVKGRFTISRDYAKKTMYLQMNNLKPEDAAVYYCAVGRKWPKADDYWGQGTLVTVKP
notes: as for B11

Key:
[1] = biological target: T1, human 5T4 (trophoblast glycoprotein), …; experiment: flow cytometry, sdAb-Fc on 5T4 expressing T47D cells
[2] = biological target: T1, human 5T4 (trophoblast glycoprotein), …; experiment: flow cytometry (FL4H median), sdAb-Fc titrated on 5T4-positive T47D cells
Method: (§1) Specificity and relative affinity were assessed for purified sdAb-Fcs on 5T4-expressing cells. Binding of 5T4-sdAb-Fc fusion proteins was assessed by flow cytometry using 5T4-expressing cells. A titration series of the fusion protein was incubated with the 5T4-expressing cell lines (approximately 2.5×10⁴ to 5×10⁴ cells/well) for 30 minutes at 4 degrees Celsius in FACS Buffer (PBS 1% BSA, 0.1% NaN₃ pH 7.4) in 96 well plates. Following three wash steps in FACS buffer, an APC-conjugated anti-human Fcγ specific secondary antibody (Jackson ImmunoResearch) was added and incubated for 30 minutes at 4 degrees Celsius. Following three additional wash steps in FACS buffer bound antibody was detected via flow cytometry (IQue Intellicyte).
(§2) Humanized variant of the 5T4 sdAbs were tested for their ability to bind 5T4 expressing cells substantially as described in Example 2, and binding was compared to the parental sdAb. 5T4 expressing T47D cells were used in these studies. Results are shown in FIGS. 2A-2F, which confirm binding of the humanized variants. In some cases, binding was increased compared to the parental sdAb.

[3] = biological target: T1, human 5T4 (trophoblast glycoprotein), …; experiment: flow cytometry (FL4), sdAb-Fc titrated on HEK-293 freestyle (293FS) cells endogenously expressing 5T4
Method: FIGS. 1A-B depict the ability of various single domain antibodies targeting 5T4 to bind cell surface 5T4. Binding was assessed by flow cytometry on HEK-293 freestyle cells endogenously expressing 5T4.
as §1

[4] = biological target: T1, human 5T4 (trophoblast glycoprotein), …; experiment: flow cytometry (FL4H median), sdAb-Fc titrated on 5T4-positive T47D cells; remark: listed apart in the source
Method: as §1, §2

Row | Binder | binding result [1] | EC50 (read off the curve) [2] | further results
1 | B1 | binds | – | –
2 | B2 | binds | – | –
3 | B3 | – | ~2 nM | –
4 | B4 | binds | – | –
5 | B5 | binds | – | –
6 | B6 | – | ~2 nM | –
7 | B7 | – | ~2 nM | –
8 | B8 | – | ~2 nM | –
9 | B9 | – | ~2 nM | –
10 | B10 | – | ~2 nM | –
11 | B11 | – | – | EC50 (read off the curve) [3]: ~0.2 nM
12 | B12 | – | – | EC50 (read off the curve) [3]: ~1 nM; EC50 (read off the curve) [4]: ~0.9 nM
13 | B13 | – | – | EC50 (read off the curve) [3]: ~0.2 nM
14 | B14 | – | – | binding result [4]: binds
15 | B15 | binds | – | –
16 | B16 | binds | – | –
17 | B17 | – | – | EC50 (read off the curve) [3]: ~1 nM
